Results published in publication PMC10762164, “Lipid nanodisc scaffold and size alter the structure of a pentameric ligand-gated ion channel” (Nature Communications, 2024).

How the values were obtained:
[1] = biological target: the molecule itself; assay: cryo-EM structure; single particle cryo-EM of ELIC or ELIC5 in SMA, saposin, spMSP1D1 or spNW15 nanodiscs with 2:1:1 POPC:POPE:POPG; 10 mM HEPES pH 7.5, 100 mM NaCl; with 50 mM propylamine or apo; C5 symmetry in 3D classification and refinement
cryo-EM structure = biological target: the molecule itself; assay: cryo-EM structure

| Protein | binding result [1] | binding result (cryo-EM structure) |
| --- | --- | --- |
| Erwinia ligand-gated ion channel (ELIC), wild type (natural protein, UniProt P0C7B7 1-321, looked up, Erwinia ligand-gated ion channel (ELIC), a pentameric ligand-gated ion channel, from plasmid pET-26-MBP-ELIC; Homopentamer; also called WT ELIC) APADNAADARPVDVSVSIFINKIYGVNTLEQTYKVDGYIVAQWTGKPRKTPGDKPLIVENTQIERWINNGLWVPALEFINVVGSPDTGNKRLMLFPDGRVIYNARFLGSFSNDMDFRLFPFDRQQFVLELEPFSYNNQQLRFSDIQVYTENIDNEEIDEWWIRKASTHISDIRYDHLSSVQPNQNEFSRITVRIDAVRNPSYYLWSFILPLGLIIAASWSVFWLESFSERLQTSFTLMLTVVAYAFYTSNILPRLPYTTVIDQMIIAGYGSIFAAILLIIFAHHRQAMGVEDDLLIQRCRLAFPLGFLAIGCVLVIRGITL | binds | – |
| ELIC5 (P254G/C300S/V261Y/G319F/I320F), non-desensitizing mutant of ELIC (natural protein) APADNAADARPVDVSVSIFINKIYGVNTLEQTYKVDGYIVAQWTGKPRKTPGDKPLIVENTQIERWINNGLWVPALEFINVVGSPDTGNKRLMLFPDGRVIYNARFLGSFSNDMDFRLFPFDRQQFVLELEPFSYNNQQLRFSDIQVYTENIDNEEIDEWWIRKASTHISDIRYDHLSSVQPNQNEFSRITVRIDAVRNPSYYLWSFILPLGLIIAASWSVFWLESFSERLQTSFTLMLTVVAYAFYTSNILGRLPYTTYIDQMIIAGYGSIFAAILLIIFAHHRQAMGVEDDLLIQRSRLAFPLGFLAIGCVLVIRFFTL | – | binds |
